From doi:10.1101/2024.01.05.574393 (bioRxiv, 2024)

B1: FLNCd24 (domain 24 of filamin C, residues 2630-2724), wild type (domain or fragment)
chain: GSKFSSDASKVVTRGPGLSQAFVGQKNSFTVDCSKAGTNMMMVGVHGPKTPCEEVYVKHMGNRVYNVTYTVKEKGDYILIVKWGDESVPGSPFKVKV

What was measured:
native MS [1] = molecular target: the molecule itself; assay: native MS
native MS [2] = molecular target: the molecule itself; assay: native MS; remark: listed apart in the source
[3] = molecular target: HSPB7ΔN (residues 78-175 of isoform 2) (human, UniProt Q9UBY9-2 78-175); assay: native MS
[4] = molecular target: B1; assay: crystal structure

Row | Binder | stoichiometry N (native MS [1]) | Kd (native MS [2]) | Kd [3] | binding result [4]
1 | B1 | 2 | 75.9 ± 8.4 nM | 6.7 ± 1.4 nM | –
2 | FLNCd24 Y2683E (phospho-mimic, residues 2630-2724) (domain or fragment) GSKFSSDASKVVTRGPGLSQAFVGQKNSFTVDCSKAGTNMMMVGVHGPKTPCEEVEVKHMGNRVYNVTYTVKEKGDYILIVKWGDESVPGSPFKVKV | – | 4050 ± 557 nM | – | –
3 | FLNCd24 T2677D (phospho-mimic, residues 2630-2724) (domain or fragment) GSKFSSDASKVVTRGPGLSQAFVGQKNSFTVDCSKAGTNMMMVGVHGPKDPCEEVYVKHMGNRVYNVTYTVKEKGDYILIVKWGDESVPGSPFKVKV | – | 8.5 ± 1 nM | – | –
4 | HSPB7ACD C131S (residues 78-162 of isoform 2) (domain or fragment) not shown | – | – | – | binds
